In data set [1] the target is T1, PpMYC2.1 (Prunus persica, UniProt A0A251P353 1-687). Kind of data set: EMSA; Chemiluminescent EMSA Kit (Beyotime); buffer, salt, pH and temperature not stated. As to conditions: protein: recombinant; tags: His, SUMO (pET-SUMO); chain copies: 2; label: 3' biotin; blunt. In general terms: Mobility shift assays separate free from complexed probe on a gel.
Data set [2] deals with T1, PpMYC2.1. Description: competition; mutant competitor vs N3; failed to compete effectively; Chemiluminescent EMSA Kit (Beyotime); buffer, salt, pH and temperature not stated. Conditions: protein: recombinant; tags: His, SUMO (pET-SUMO); chain copies: 2; blunt.
The target of data set [3] is T1, PpMYC2.1. Description: competition; mutant competitor vs N1; failed to compete effectively; Chemiluminescent EMSA Kit (Beyotime); buffer, salt, pH and temperature not stated. As to conditions: protein: recombinant; tags: His, SUMO (pET-SUMO); chain copies: 2; blunt.
Data set [4] concerns the target T1, PpMYC2.1. Description: competition; mutant competitor vs N5; failed to compete effectively; Chemiluminescent EMSA Kit (Beyotime); buffer, salt, pH and temperature not stated. Conditions: protein: recombinant; tags: His, SUMO (pET-SUMO); chain copies: 2; blunt.

This note sets out measurements from publication PMC12923268, “JAZ2/JAZ4-MYC2.1 module mediates MeJA-induced alleviation of chilling injury in peach fruit (Prunus persica)”.

T1 sequence (A0A251P353 entry or part of it): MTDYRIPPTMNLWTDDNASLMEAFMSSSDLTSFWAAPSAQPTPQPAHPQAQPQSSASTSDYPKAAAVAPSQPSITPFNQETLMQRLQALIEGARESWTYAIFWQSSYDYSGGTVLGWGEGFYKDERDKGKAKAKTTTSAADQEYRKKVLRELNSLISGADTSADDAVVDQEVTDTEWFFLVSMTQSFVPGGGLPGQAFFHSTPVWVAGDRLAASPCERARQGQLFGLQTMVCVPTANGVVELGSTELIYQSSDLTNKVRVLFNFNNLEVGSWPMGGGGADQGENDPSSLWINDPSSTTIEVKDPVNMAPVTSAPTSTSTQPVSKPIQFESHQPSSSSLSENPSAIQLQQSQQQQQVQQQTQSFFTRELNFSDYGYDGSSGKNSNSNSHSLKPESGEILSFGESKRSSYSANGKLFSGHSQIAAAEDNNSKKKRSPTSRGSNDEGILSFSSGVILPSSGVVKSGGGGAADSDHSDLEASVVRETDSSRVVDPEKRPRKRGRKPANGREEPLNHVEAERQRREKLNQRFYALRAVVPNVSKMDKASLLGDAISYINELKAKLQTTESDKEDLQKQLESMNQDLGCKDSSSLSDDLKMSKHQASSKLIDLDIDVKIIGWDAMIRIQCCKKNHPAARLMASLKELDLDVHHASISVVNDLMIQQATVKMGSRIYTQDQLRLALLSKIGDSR

B1: PpCHS probe (dsDNA)
DNA 1: AGAAAACCACGTGGGACAAAACCCTAGA
DNA 2: TCTAGGGTTTTGTCCCACGTGGTTTTCT
With B1, in the data set with PpMYC2.1 [1], the binding result is “binds”.

B2: PpCHI3 probe (PpCHI) (dsDNA)
DNA 1: CATCTACCCACGTGTTCAACAATTCAA
DNA 2: TTGAATTGTTGAACACGTGGGTAGATG
On to B2, for which the binding result in the data set with PpMYC2.1 [1] is “binds”.

B3: PpPG2 probe (dsDNA)
DNA 1: GACAACAATTCCACATGTCCTATGTTTATTG
DNA 2: CAATAAACATAGGACATGTGGAATTGTTGTC
As for B3, in the data set with PpMYC2.1 [1], the binding result is “binds”.

B4: PpPL1 probe (dsDNA)
DNA 1: CACACACTCACATGTTGCTAAATT
DNA 2: AATTTAGCAACATGTGAGTGTGTG
As for B4, in the data set with PpMYC2.1 [1], the binding result is on record as “binds”.

B5: Pp4CL probe (dsDNA)
DNA 1: GCATGGGACACACGTGTTCAAATACTTGTATGA
DNA 2: TCATACAAGTATTTGAACACGTGTGTCCCATGC
As for B5, the binding result in the data set with PpMYC2.1 [1] is reported as “binds”.

B6: PpHB.G7 probe (dsDNA)
DNA 1: GTGGCGTGAGAACACGTGTGGCCGTTACGC
DNA 2: GCGTAACGGCCACACGTGTTCTCACGCCAC
For B6, the binding result with PpMYC2.1 [1] is listed as “binds”.

B7: PpERF61 probe (dsDNA)
DNA 1: ACAAGTTGAGCATGTGTACCCAATTGCT
DNA 2: AGCAATTGGGTACACATGCTCAACTTGT
For B7, the binding result in the data set with PpMYC2.1 [1] is given as “binds”.

B8: PpHB.G7 mut (dsDNA)
DNA 1: GTGGCGTGAGAAAAAAAATGGCCGTTACGC
DNA 2: GCGTAACGGCCATTTTTTTTCTCACGCCAC
Take B8: the binding result in the data set with PpMYC2.1 [2] is reported as “no binding”.

B9: PpERF61 mut (dsDNA)
DNA 1: ACAAGTTGAGAAAAAATACCCAATTGCT
DNA 2: AGCAATTGGGTATTTTTTCTCAACTTGT
B9: the binding result with PpMYC2.1 [3] is reported as “no binding”.

B10: PpPAL1 probe (dsDNA)
DNA 1: GGCAACCACATGGATGAATTGTTAT
DNA 2: ATAACAATTCATCCATGTGGTTGCC
For the molecule B10, the binding result with PpMYC2.1 [1] is recorded as “binds”.

B11: PpIAA1 mut (dsDNA)
DNA 1: AGTAGTTGGAAAAAATTATAAATAATA
DNA 2: TATTATTTATAATTTTTTCCAACTACT
As for B11, the binding result with PpMYC2.1 [4] is listed as “no binding”.

B12: PpIAA1 probe (dsDNA)
DNA 1: AGTAGTTGGCACGTGTTATAAATAATA
DNA 2: TATTATTTATAACACGTGCCAACTACT
For the molecule B12, the binding result with PpMYC2.1 [1] is “binds”.

B13: PpXTH2 probe (dsDNA)
DNA 1: TGAGGCGCACATGGAACAAAATTAG
DNA 2: CTAATTTTGTTCCATGTGCGCCTCA
As for B13, the binding result with PpMYC2.1 [1] is “binds”.
